Experimental data taken from PMC2837359 (Journal of molecular biology, 2009).

Molecular target: the molecule itself
Test: single particle electron microscopy

B1: galactose permease (GalP), H+/galactose symporter from E. coli, His6-tagged (natural protein, UniProt P0AEP1 1-464, looked up)
chain: MPDAKKQGRSNKAMTFFVCFLAALAGLLFGLDIGVIAGALPFIADEFQITSHTQEWVVSSMMFGAAVGAVGSGWLSFKLGRKKSLMIGAILFVAGSLFSAAAPNVEVLILSRVLLGLAVGVASYTAPLYLSEIAPEKIRGSMISMYQLMITIGILGAYLSDTAFSYTGAWRWMLGVIIIPAILLLIGVFFLPDSPRWFAAKRRFVDAERVLLRLRDTSAEAKRELDEIRESLQVKQSGWALFKENSNFRRAVFLGVLLQVMQQFTGMNVIMYYAPKIFELAGYTNTTEQMWGTVIVGLTNVLATFIAIGLVDRWGRKPTLTLGFLVMAAGMGVLGTMMHIGIHSPSAQYFAIAMLLMFIVGFAMSAGPLIWVLCSEIQPLKGRDFGITCSTATNWIANMIVGATFLTMLNTLGNANTFWVYAALNVLFILLTLWLVPETKHVSLEHIERNLMKGRKLREIGAHD
Question: For B1, which “stoichiometry N” value is on record?
Answer: Its value is 3.
